Ends that are not written are not given here.
B1: eIF4G1 wild type peptide (peptide)
peptide: KKRYDREFLLGF
notes: also called eIF4G1-WT; eIF4G1 peptide; source: synthetic peptide (Mimotopes), HPLC purified to >90%
B2: VL-PHAGESOL-Q8F/L12F peptide (peptide)
peptide: KKRYSRDFLLAF
notes: PHAGESOL with V10L, Q8F and L12F; source: synthetic peptide (Mimotopes), HPLC purified to >90%
B3: eIF4G1-D5C peptide (peptide)
peptide: KKRYCREFLLGF
notes: eIF4G1 peptide with D5C; source: synthetic peptide (Mimotopes), HPLC purified to >90%
B4: eIF4G1-D5S peptide (peptide)
peptide: KKRYSREFLLGF
notes: eIF4G1 peptide with D5S; also called eIF4G-D5S; source: synthetic peptide (Mimotopes), HPLC purified to >90%
B5: eIF4G1-D5N peptide (peptide)
peptide: KKRYNREFLLGF
notes: eIF4G1 peptide with D5N; source: synthetic peptide (Mimotopes), HPLC purified to >90%
B6: eIF4G1-QL peptide (peptide)
peptide: KKRYDREQLLGL
notes: eIF4G1 peptide with F8Q and F12L; also called eIF4G1_F8Q/F12L; source: synthetic peptide (Mimotopes), HPLC purified to >90%
B7: eIF4G1-OPT peptide (peptide)
peptide: KKRYSREFLLAF
notes: eIF4G1 peptide with D5 changed to S and G11 changed to A; source: synthetic peptide (Mimotopes), HPLC purified to >90%
B8: eIF4G1-D5P peptide (peptide)
peptide: KKRYPREFLLGF
notes: eIF4G1 peptide with D5P; source: synthetic peptide (Mimotopes), HPLC purified to >90%
B9: eIF4G1-E7D peptide (peptide)
peptide: KKRYDRDFLLGF
notes: eIF4G1 peptide with E7D; also called E7D mutant peptide; source: synthetic peptide (Mimotopes), HPLC purified to >90%
B10: PHAGESOL-Q8F/L12F peptide (peptide)
peptide: KKRYSRDFLVAF
notes: PHAGESOL with Q8F and L12F; source: synthetic peptide (Mimotopes), HPLC purified to >90%
B11: eIF4G1-F8Q peptide (peptide)
peptide: KKRYDREQLLGF
notes: eIF4G1 peptide with F8Q; also called eIF4G-F/Q; source: synthetic peptide (Mimotopes), HPLC purified to >90%
B12: PHAGESOL-L12F peptide (peptide)
peptide: KKRYSRDQLVAF
notes: PHAGESOL with L12F; source: synthetic peptide (Mimotopes), HPLC purified to >90%
B13: PHAGESOL-Q8F peptide (peptide)
peptide: KKRYSRDFLVAL
notes: PHAGESOL with Q8F; source: synthetic peptide (Mimotopes), HPLC purified to >90%
B14: PHAGESOL-D7E peptide (peptide)
peptide: KKRYSREQLVAL
notes: PHAGESOL with D7E; source: synthetic peptide (Mimotopes), HPLC purified to >90%
B15: VL-PHAGESOL peptide (peptide)
peptide: KKRYSRDQLLAL
notes: PHAGESOL with V10L; also called PHAGESOL V10L; source: synthetic peptide (Mimotopes), HPLC purified to >90%
B16: eIF4G1-L10V peptide (peptide)
peptide: KKRYDREFLVGF
notes: eIF4G1 peptide with L10V; source: synthetic peptide (Mimotopes), HPLC purified to >90%
B17: eIF4G1-D5T peptide (peptide)
peptide: KKRYTREFLLGF
notes: eIF4G1 peptide with D5T; source: synthetic peptide (Mimotopes), HPLC purified to >90%
B18: PHAGESOL peptide (peptide)
peptide: KKRYSRDQLVAL
notes: phage display selected 12-mer … with its N-terminal SLH changed to KKR of the eIF4G1 peptide; source: synthetic peptide (Mimotopes), HPLC purified to >90%
B19: eIF4G1-D5G peptide (peptide)
peptide: KKRYGREFLLGF
notes: eIF4G1 peptide with D5G; source: synthetic peptide (Mimotopes), HPLC purified to >90%
B20: eIF4G1-F12L peptide (peptide)
peptide: KKRYDREFLLGL
notes: eIF4G1 peptide with F12L; also called F12L mutant peptide; source: synthetic peptide (Mimotopes), HPLC purified to >90%
B21: VL-PHAGESOL-L12F peptide (peptide)
peptide: KKRYSRDQLLAF
notes: PHAGESOL with V10L and L12F; source: synthetic peptide (Mimotopes), HPLC purified to >90%
B22: eIF4G1-G11A peptide (peptide)
peptide: KKRYDREFLLAF
notes: eIF4G1 peptide with G11A; source: synthetic peptide (Mimotopes), HPLC purified to >90%
B23: VL-PHAGESOL-Q8F peptide (peptide)
peptide: KKRYSRDFLLAL
notes: PHAGESOL with V10L and Q8F; source: synthetic peptide (Mimotopes), HPLC purified to >90%
B24: eIF4G1-D5E peptide (peptide)
peptide: KKRYEREFLLGF
notes: eIF4G1 peptide with D5E; also called eIF4G-D5E; source: synthetic peptide (Mimotopes), HPLC purified to >90%

Tests used:
[1] = Solubility of the peptide as observed on handling; assay type: physicochemical; conditions: qualitative observation
eIF4E = biological target: T1, eIF4E (Homo sapiens, UniProt P06730); test: Fluorescence based thermal shift (thermal stability) assay, Sypro Red; assay type: binding; conditions: shift of eIF4E Tm, 10 µM eIF4E, 100 µM peptide, PBS, 20 to 90°C at 1°C/min, Ex/Em 533/640 nm
T1 construct: Full-length human eIF4E was expressed and purified as described previously; made in house
T1 sequence (P06730 whole entry): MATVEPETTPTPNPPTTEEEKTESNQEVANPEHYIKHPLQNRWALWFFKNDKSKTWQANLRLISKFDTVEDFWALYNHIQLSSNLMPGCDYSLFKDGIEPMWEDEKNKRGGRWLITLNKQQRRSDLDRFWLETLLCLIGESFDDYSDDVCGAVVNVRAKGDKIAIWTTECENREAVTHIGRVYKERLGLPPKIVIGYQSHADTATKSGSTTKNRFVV
Method: A fluorescence based thermal shift assay was used to screen and rank the rationally designed eIF4E binding derivative peptides. The fluorescent dye Sypro Red (Invitrogen) was used to monitor thermal denaturation of eIF4E. Binding of the dye molecule to eIF4E, as it unfolds due to thermal denaturation, results in a sharp increase in the fluorescence intensity. The midpoint of this transition is termed the Tm. The thermal shift assay was conducted in a LightCycler (Roche). Protein samples studied were made up to a total volume of 50 µl in PBS (Phosphate Buffered Saline) with Sypro Red, (Invitrogen, 5000× DMSO stock) at a 3.125× concentration. The final protein concentration was 10 µM. Protein samples were incubated with derivative peptides at a concentration of 100 µM. […] The fluorescence intensity was measured with Ex/Em:533/640 nm.
The fluorescence data against temperature derived from the LightCycler were fitted to Eq. (1) to obtain ΔHu, ΔCpu, and Tm by nonlinear regression using the program Prism 4.0, Graphpad: [drawing 1] (1) where Ft is the fluorescence intensity at temperature T; Tm is the midpoint temperature of the protein-unfolding transition, Fpre and Fpost are the pretransitional and posttransitional fluorescence intensities, respectively, R is the gas constant, ΔHu is the enthalpy of protein unfolding, and ΔCpu is the heat capacity change on protein unfolding. […]

[2] = biological target: T2, Eukaryotic initiation factor 4E (eIF4E), full-length human (human, UniProt P06730 1-217); test: SPR; eIF4E amine coupled to a CM5 chip (about 1000 RU, m7GTP present at immobilisation), peptides injected; 10 mM Hepes pH 7.6, 0.15 M NaCl, 1 mM DTT, 0.1% Tween20, 3% DMSO; Biacore T100; Kd from the association and dissociation phases (Kkin), 1:1 model, three titrations; conditions: both partners purified
T2 construct: eIF4E, human, full length
T2 sequence (P06730 whole entry): as above

[3] = biological target: T2, Eukaryotic initiation factor 4E …; test: fluorescence based thermal shift assay; 10 uM eIF4E with 100 uM peptide in PBS, Sypro Red, heated from 20 to 90 °C at 1 °C/min; Kd estimated from the Tm shift (enthalpy of binding taken to be -5 kcal/mol); conditions: both partners purified
[4] = biological target: T2, Eukaryotic initiation factor 4E …; test: SPR; eIF4E amine coupled to a CM5 chip (about 1000 RU, m7GTP present at immobilisation), peptides injected; 10 mM Hepes pH 7.6, 0.15 M NaCl, 1 mM DTT, 0.1% Tween20, 3% DMSO; Biacore T100; Kd from the equilibrium responses (Keq), 1:1 model, three titrations; conditions: both partners purified
[5] = biological target: T2, Eukaryotic initiation factor 4E …; test: SPR; eIF4E amine coupled to a CM5 chip (about 1000 RU, m7GTP present at immobilisation), peptides injected; 10 mM Hepes pH 7.6, 0.15 M NaCl, 1 mM DTT, 0.1% Tween20, 3% DMSO; Biacore T100; Kd from the association and dissociation phases (Kkin), 1:1 model, three titrations; conditions: both partners purified; remark: listed apart in the source
[6] = biological target: T2, Eukaryotic initiation factor 4E …; test: SPR; eIF4E amine coupled to a CM5 chip (about 1000 RU, m7GTP present at immobilisation), peptides injected; 10 mM Hepes pH 7.6, 0.15 M NaCl, 1 mM DTT, 0.1% Tween20, 3% DMSO; Biacore T100; Kd from the equilibrium responses (Keq), 1:1 model, three titrations; conditions: both partners purified; remark: listed apart in the source
[7] = biological target: T2, Eukaryotic initiation factor 4E …; test: SPR; eIF4E amine coupled to a CM5 chip (about 1000 RU, m7GTP present at immobilisation), peptides injected; 10 mM Hepes pH 7.6, 0.15 M NaCl, 1 mM DTT, 0.1% Tween20, 3% DMSO; Biacore T100; Kd from the association and dissociation phases (Kkin), 1:1 model, three titrations; conditions: both partners purified; remark: listed apart in the source
[8] = biological target: T2, Eukaryotic initiation factor 4E …; test: SPR; eIF4E amine coupled to a CM5 chip (about 1000 RU, m7GTP present at immobilisation), peptides injected; 10 mM Hepes pH 7.6, 0.15 M NaCl, 1 mM DTT, 0.1% Tween20, 3% DMSO; Biacore T100; Kd from the equilibrium responses (Keq), 1:1 model, three titrations; conditions: both partners purified; remark: listed apart in the source

Molecule | Kd [2] [nM] | Kd [3] [nM] | thermal shift (Tm) [3] [°C] | Kd [4] [nM] | Kd [5] [nM] | Kd [6] [nM] | also measured
KKRYSRDQLVAL [PHAGESOL] |  |  |  |  |  |  | solubility of the peptide (in words) [1]: soluble
SLHYSRDQLVAL [PHAGE, phage display selected 12mer […]] |  |  |  |  |  |  | solubility of the peptide (in words) [1]: insoluble; Thermal Shift (Tm, °C) (eIF4E): no observable shift
B1 | 524 ± 61.6 | 460 | 7.03 ± 0.1 | 580 ± 16.7 |  |  | 
B2 |  |  |  |  | 62 ± 3.5 | 69.9 ± 6.4 | 
B3 |  |  |  |  |  |  | Kd [7]: 458 ± 19.8 nM; Kd [8]: 436 ± 6.4 nM
B4 | 99.9 ± 6.2 | 100 | 8.97 ± 0.07 | 103 ± 2.3 |  |  | 
B5 |  |  |  |  |  |  | Kd [7]: 388.9 ± 1.6 nM; Kd [8]: 444.5 ± 1.6 nM
B6 |  |  |  |  | 1090 ± 106 | 1090 ± 49.9 | 
B7 |  |  |  |  | 59.4 ± 2.9 | 52.2 ± 1.4 | 
B8 |  |  |  |  |  |  | Kd [7]: 717 ± 31.2 nM; Kd [8]: 684 ± 13.6 nM
B9 | 759 ± 70.7 | 520 | 6.87 ± 0.18 | 784 ± 21.5 |  |  | 
B10 |  |  |  |  | 374 ± 33.1 | 348 ± 20.9 | 
B11 | 1780 ± 406 | 2000 | 5 ± 0.03 | 1630 ± 75.1 |  |  | 
B12 |  |  |  |  | 120 ± 5.3 | 112 ± 2.7 | 
B13 |  |  |  |  | 184 ± 15.4 | 196 ± 6.3 | 
B14 |  |  |  |  | 52.9 ± 2.1 | 51.6 ± 1.8 | 
B15 |  |  |  |  | 34.7 ± 1.2 | 37.2 ± 1.6 | 
B16 | 2680 ± 444 | 4400 | 3.9 ± 0.03 | 4540 ± 622 |  |  | 
B17 |  |  |  |  |  |  | Kd [7]: 105 ± 7.2 nM; Kd [8]: 110 ± 1.8 nM
B18 | 77.1 ± 9 | 77 | 9.83 ± 0.1 | 76.7 ± 3.4 |  |  | 
B19 |  |  |  |  |  |  | Kd [7]: 440 ± 26 nM; Kd [8]: 468 ± 28.1 nM
B20 | 718 ± 98 | 520 | 6.87 ± 0.12 | 761 ± 63.8 |  |  | 
B21 |  |  |  |  | 40.7 ± 3.8 | 43.21 ± 0.34 | 
B22 | 282 ± 17.6 | 200 | 8.13 ± 0.12 | 309 ± 11.6 |  |  | 
B23 |  |  |  |  | 47.1 ± 1.5 | 49.6 ± 4.3 | 
B24 |  |  |  |  |  |  | Kd [7]: 692 ± 31.2 nM; Kd [8]: 749 ± 57.7 nM
